This is an account of results in article doi:10.1101/2025.02.26.640323, “Aggregation-Dependent Epitope Sequence and Modification Fingerprints of Anti-Aβ Antibodies” (bioRxiv, 2025).

Data set [1] can be described thus: Isoelectric point on CIEF immunoassay. The data set is classed as physicochemical. Conditions: Peggy Sue. The protocol: (§1) Automated capillary isoelectric focusing immunoassays were performed with a Peggy-Sue system (ProteinSimple,San Jose, California, USA), essentially as previously described and [53].
(§2) In brief, synthetic Aβ peptide variants were separated by isoelectric focusing in microcapillaries followed by photochemical immobilization to the inner capillary walls and probing with the primary antibodies for 120 min. After 2 washes, the horseradish peroxidase conjugated secondary antibodies were loaded and incubated for 60 min. After two washing steps, a luminol/peroxide mix was loaded, and chemiluminescent signals were recorded. The data was analyzed with the Compass for SW software. The following secondary antibodies were used: Anti-human IgG Secondary HRP antibody (Protein Simple, catalog number 043–491), Goat-Anti-Mouse-HRP Secondary Antibody ProteinSimple, catalog number 040–655) and Peroxidase-conjugated Affini Pure Donkey Anti-Human IgG (H+L) (1:100 dilution) (Jackson ImmunoResearch Laboratories Inc., West Grove, PA, code number 709–035-149).

In the next data set the test system is synthetic Aβ peptides. Kind of data set: Peptide Bicine-Tris SDS-PAGE/Western blot. It counts as binding. Conditions: PVDF, 50 ng per peptide, 0.5 μg/mL antibody. (A western blot detects proteins with antibodies after separation by electrophoresis.)
Data set [2] has as its system endogenous soluble Aβ in pooled human CSF. Kind of data set: IP-MS from pooled human CSF. It counts as binding. Conditions: 250 μL pooled human CSF, CHCA matrix; two replicate measurements each from two independent immunoprecipitations.
The subject of data set [3] is Aβ vascular and parenchymal deposits in AD brain sections. Kind of data set: Immunohistochemistry on AD brain tissue with antibody pre-adsorption. Set-up: species or system human. The protocol: Immunohistochemistry was performed on 4-μm paraffin sections. In brief, brain sections were deparaffinized in Roticlear (Carl Roth, Karlsruhe, Germany) and rehydrated in a descending series of ethanol. Activity of endogenous peroxidases was blocked by incubation in 0.3% H2O2 in PBS for 30 min. […] Antibodies and peptides were incubated on a rotator for 3 h at room temperature and reaction tubes were centrifuged at 13000 rpm for 5 min at the end of the incubation period. Control conditions included antibodies in 0.01 M PBS including 10% FCS without synthetic peptides. Adjacent paraffin-embedded sections from a human AD case were incubated overnight with the supernatants and sections were washed with 0.01 M PBS including 0.1 % Tergitol. For detection, biotinylated anti-human antibodies (6 μg/ml, Jackson ImmunoResearch, West Grove, Pennsylvania, USA #109-065-003) were used and staining was visualized with the ABC method with a Vectastain kit (Vector Laboratories, Newark, California, USA), diaminobenzidine as a chromogen and counterstaining with hematoxylin.

Data set [4] relates to amyloid precursor protein (APP770) residues 649–722. Kind of data set: Peptide microarray epitope pre-screening (overlapping 15-mers). It counts as binding, human. Conditions: Aβ residue numbers; 15-mer peptides overlapping by 14AAs on cellulose conjugates, 0.5–1 μg/mL antibody, chemiluminescence. The protocol: Information regarding binding epitopes and /or immunogens for most of the tested Aβ-Abs has been published and is summarized in Table 1. However, the binding epitope information was derived from varying methodologies. To provide an initial side-by-side comparison we pre-screened all of the listed Aβ-Abs in array format using copies of peptide libraries and standard antibody concentrations of 0.5–1 μg/mL (Figure 1a). The library comprised the amyloid precursor protein (APP770) residues 649–722, corresponding to the canonical Aβ1–42 amino acid sequence with additional 23 amino terminal and 9 carboxy terminal residues. […] For optimal signal to noise ratios and ideal selectivity profiles on the microarrays, the Aβ-Ab concentrations were adjusted for 3D6, 82E1, 11H3, 80C2 and 7H3D6 (Figure 1 – figure- supplement 1) and (Appendix 1–7). […] Specifically, Donanemabbs, 2–48 and Aβ-pE3 were raised against AβpE3-x (Table 1) and were expected to show preference for Aβ peptides starting with a pE(3).
Figure 1. Microarray workflow and Aβ-Ab epitope pre-screening. (a) Schematic of the microarray workflow. The library comprised the amyloid precursor protein (APP) residues 649–722 (APP770 numbering), corresponding to Aβ residues −23 to 51, as a library of 15-mer peptides overlapping by 14AAs, copied in dozens, and probed for Aβ-Abs binding followed by analysis in MARTin. (b) The epitope screening binding data are summarized as a heatmap. Blue and red shades indicate the relative binding strength of the related arrayed peptides to the left and cognate Aβ-Ab on top. The blue – red scale is visualizing the normalized binding intensity for each antibody individually. The applied antibody concentrations ranged between 0.5–1 μg/mL.
The μSPOT assay was performed as previously described. […] Peptide arrays were synthesized using MultiPep RSi robot (CEM GmbH, Kamp-Lintford, Germany) on cellulose discs containing Fmoc-β-Ala linkers. Natural amino acid building blocks were purchased from IRIS (IRIS Biotech GmbH, Marktredwitz, Germany). Special building blocks employed in this study such as isomers, stereoisomers, phosphorylation and pyroglutamination […] modifications are listed here: Fmoc-L-Ser(PO(OBzl)OH)-OH (Iris – FAA1423), L-Pyroglutamic acid pentachlorophenyl ester (Novabiochem - 8.54203), Fmoc-L-Asp-OtBu (Iris – FAA1356), Fmoc-D-Asp-OtBu (Carbosolutions – CC05095) and Fmoc-D-Asp(tBu)-OH (Iris – FAA1309). Synthesis was carried out by deprotecting the Fmoc-group using 20% piperidine in dimethylformamide (DMF). Peptide chains were elongated using a coupling solution consisting of amino acids (0.5M) with oxyma (1M) and DIC (1M) in DMF (1:1:1). Coupling steps were carried out 3 times (30min), followed by capping (4% acetic anhydride in DMF). Discs were transferred into 96 deep-well plates for the work-up.

Data set [5] has as its system synthetic Aβ peptide variants. Kind of data set: Capillary isoelectric focusing (CIEF) immunoassay. Conditions: Peggy Sue, chemiluminescence. It counts as binding. The protocol:
as §1, §2

Data set [6] deals with Aβ1–42 monomer, oligomer and fibril preparations; AβpE3–40. Kind of data set: Bistris-SDS gradient PAGE/Western blot. The data set is classed as binding. Conditions: 4–12% Bistris SDS-PAGE/Western blot. On the procedure: No SPR-487B) (StressMarq biosciences, Victoria, BC, Canada). The samples for electrophoresis were prepared (starting from stock solutions) with final concentrations of 0.1 μg/μL) in LDS sample buffer (247.5 mM Tris-HCl, pH 8.5, 2% (w/v) lithium dodecyl sulfate (LDS), 10% (v/v) glycerol, 0.5 mM EDTA, 0.22 mM Brilliant Blue G250, 0.175 mM Phenol Red) and denatured by heating at 70°C for 10 min. […] The prechilled transfer buffer contained 25 mM Tris, 192 mM glycine, 20% (v/v) methanol and 0.0375 % Tween-20. After blotting, the membrane was washed for 10 min at room temperature in Tris-buffered saline (TBS) followed by blocking for 30 min with 5% powdered milk in TBS containing 0.1% Tween-20 (TBS-T). The blots were then incubated with primary antibodies in 5% milk in TBS-T over night at 4°C and washed 3 × for 10 min with TBS-T at room temperature. […] After 1 h incubation with the secondary antibodies, the blots were washed 3 × for 10 min with TBS-T and incubated for 5 min with ECL-Prime Western Blotting Detection Reagent (Cytiva Amersham, Little Chalfont, England). Images were recorded on a Vilber-Loumart Fusion SL blot imager. […] That way, the 4G8 reprobing signals were essentially added on top of the initial signals and background artifacts.

Data set [7] has as its system Alzheimer's disease patients. Conditions: cited from earlier work.
The test system of another data set is Aβ. Conditions: cited from earlier work.
The mark [8] stands for this setting: Lecanemabbs #BXC-SIM0032, 0.06 μg with 0.25 μg peptide.

Entries after “also recorded” stand apart in the source; their conditions may differ.

For the molecule Aβ1–40: synthetic Aβ peptide, AnaSpec, the pI in data set [1] came to 5.31.
Same read-out and setting: with “Aβ1–42: synthetic Aβ peptide, AnaSpec; monomers, oligomers, fibrils from StressMarq” the entry was “approx. 5.3”; with “Aβ−3–40: N-terminally elongated Aβ, provided by H.-J. Knölker, Technische Universität Dresden”, 6.04.

B1: Lecanemabbs: humanized monoclonal, biosimilar of Lecanemab, Proteogenix (#PX-TA1746) and BioXCell (#BXC-SIM0032) (antibody, chains of the INN, looked up, V domains shown)
VH: EVQLVESGGGLVQPGGSLRLSCSASGFTFSSFGMHWVRQAPGKGLEWVAYISSGSSTIYYGDTVKGRFTISRDNAKNSLFLQMSSLRAEDTAVYYCAREGGYYYGRSYYTMDYWGQGTTVTVSS
VL: DVVMTQSPLSLPVTPGAPASISCRSSQSIVHSNGNTYLEWYLQKPGQSPKLLIYKVSNRFSGVPDRFSGSGSGTDFTLRISRVEAEDVGIYYCFQGSHVPPTFGPGTKLEIK
modifications: biosimilar
As for B1, the “Aβ variants detected on Bicine-Tris SDS-PAGE/Western blot” value in the data set on synthetic Aβ peptides is listed as “recognized Aβ1–40, Aβ1–42, Aβ3–40 (pI approximately 5.97) Aβ-3–40 (aka. APP669–711),phosphorylated pSer8-Aβ1–40”. Further, the “immunoprecipitation of endogenous Aβ from CSF” value in data set [2] is “immunoprecipitated authentic biological Aβ peptides from pooled human CSF; also recorded: Aβ1–40, Aβ1–38, Aβ42, Aβ1–37 and Aβ1–39 were detected, albeit with relatively low signal intensities”. In addition, in data set [3] (Aducanumabbs 0.5 μg with 5 μg fibrils, Lecanemabbs (PX-TA1746) 0.06 μg with 0.25 μg, human AD brain, antibody for IHC: Aducanumabbs 0.5 μg/μl (so in the source)), the “IHC immunoreactivity after pre-adsorption with Aβ1–42 fibrils” value is on record as “efficiently blocked”. For the same molecule, the “IHC immunoreactivity after pre-adsorption with Aβ1–42 monomers” value in data set [3] (Aducanumabbs 0.5 μg with 10 μg monomers, Lecanemabbs (PX-TA1746) 0.06 μg with 0.25 μg, human AD brain) is on record as “efficiently blocked”. In data set [3] (setting [8]), the “IHC blocking by Aβ1–16 (BioXCell lot)” value is on record as “did not”, the “IHC blocking by Aβ1–34 (BioXCell lot)” value is listed as “did not”, the “IHC blocking by Aβ1–38 (BioXCell lot)” value is reported as “did not” and the “IHC blocking by Aβ1–42 monomers (BioXCell lot)” value is reported as “completely blocked Lecanemabbs binding”. Besides, the “IHC immunoreactivity after pre-adsorption with Aβ1–42 oligomers” value in data set [3] (Lecanemabbs (PX-TA1746) 0.06 μg with 0.25 μg oligomers, human AD brain) is on record as “efficiently blocked”. In addition, in data set [4], the “Array: epitope identified in this study on microarrays” value is recorded as 3–7. In addition, the “Aβ variants detected on CIEF-immunoassay” value in data set [5] was “recognized Aβ1–40, Aβ1–42, Aβ3–40 (pI approximately 5.97) Aβ-3–40 (aka. APP669–711),phosphorylated pSer8-Aβ1–40; also recorded: detected Aβ1–40 (pI 5.31), Aβ2–40 (pI 5.98), Aβ3–40 (pI 5.97), Aβ−3–40 (pI 6.04), Aβ1–42 (pI approx. 5.3) and pSer8Aβ1–40 (amide) (pI 5.13–5.14)”. Moreover, in data set [6], the “preference for Aβ1–42 aggregation state” value was “a certain, but not absolute preference for aggregated forms of Aβ1–42 over monomeric and low-n oligomeric forms”.

B2: Lecanemab: designed at Uppsala University, humanized by BioArctic, later licensed to Eisai (antibody, chains of the INN, looked up, V domains shown)
VH: B1 VH
VL: B1 VL
As to B2, the ARIA-E frequency in data set [7] (cross-study comparison, ref [38]) is 13%. For the same molecule, the “clinical outcome, Clarity AD” value in data set [7] (ref [45],[46]) was “positive results in the Clarity AD trial”. The “binding to aggregated versus monomeric Aβ” value in the data set on Aβ (ref [38],[40],[41],[83]) is “strong preference for Aβ protofibrils and to bind Aβ monomers only weakly; also recorded: preferably bind specific aggregated forms of Aβ over monomeric forms”. Besides, the “preferential binding to fibrillar Aβ” value in the data set with Aβ (ref [46]) is listed as “preferential binding to fibrillar Aβ aggregates”. In addition, in data set [4], the “Array: epitope identified in this study on microarrays” value is 3–7.
